This is an account of results in paper PMC4414246.

What is called Kd is the concentration at which binding is half-saturated. A high value points to lower affinity.

Assay in all cases: fluorescence polarization
In general terms: Polarisation of emitted light reports the rotation of a fluorescent probe.

In data set [1] the target is U1A M51N (UniProt P09012 10-89, M51N).
The target of data set [2] is U1A L49K (UniProt P09012 10-89, L49K).
Data set [3] addresses dK50dM51 E19N (UniProt P09012 10-89, E19N;del50-51).
The target of data set [4] is U1A M51A:Y13Q (UniProt P09012 10-89, Y13Q;M51A).
Data set [5] has as its target dK50dM51 S48A (UniProt P09012 10-89, S48A;del50-51).
For data set [6], the target named is U1A N16A (UniProt P09012 10-89, N16A).
In data set [7] the target is dK50dM51 E19A (UniProt P09012 10-89, E19A;del50-51).
Data set [8] addresses U1A L49A:F56A (UniProt P09012 10-89, L49A;F56A).
Data set [9] deals with U1A E19A (UniProt P09012 10-89, E19A).
Data set [10] concerns the target dK50dM51 (UniProt P09012 10-89, del50-51).
In data set [11] the target is dK50dM51 E19S (UniProt P09012 10-89, E19S;del50-51).
For data set [12], the target named is dK50dM51 E19K (UniProt P09012 10-89, E19K;del50-51).
The target in data set [13] is dK50dM51 S46A (UniProt P09012 10-89, S46A;del50-51).
Data set [14] concerns the target U1A (UniProt P09012 10-89).
The target of data set [15] is dK50dM51 N16A (UniProt P09012 10-89, N16A;del50-51).
The target of data set [16] is U1A L49A:E19A (UniProt P09012 10-89, E19A;L49A).
For data set [17], the target named is U1A N15A (UniProt P09012 10-89, N15A).
Data set [18] deals with U1A M51A (UniProt P09012 10-89, M51A).
Data set [19] concerns the target U1A M51A:E19A (UniProt P09012 10-89, E19A;M51A).
For data set [20], the target named is U1A E19S:Y13Q (UniProt P09012 10-89, Y13Q;E19S).
The target in data set [21] is U1A E19S (UniProt P09012 10-89, E19S).
Data set [22] deals with dK50dM51 L49A (UniProt P09012 10-89, L49A;del50-51).
In data set [23] the target is dK50dM51 E19F (UniProt P09012 10-89, E19F;del50-51).
The target in data set [24] is U1A E19N (UniProt P09012 10-89, E19N).

B1: TAR RNA (structured_RNA)
RNA: GGCAGAUCUGAGCCUGGGAGCUCUCUGCC
With B1, the equilibrium dissociation constant (Kd) in data set [1] is 13.8 ± 1.6 µM; in data set [2] it was 3.9 ± 0.4 µM; in data set [3], 27.8 ± 3.2 µM; in data set [4] it was 210 ± 84.3 µM; in data set [5] it was 33.9 ± 15.9 µM; in [6], 8.8 ± 1.4 µM. Besides, the equilibrium dissociation constant (Kd) in data set [7] was determined as 10.2 ± 2.2 µM; in data set [8], 123 ± 38.7 µM; in [9], 5.9 ± 0.8 µM; in data set [10], 15.9 ± 2.3 µM; in [11] it was 7 ± 1.9 µM; in data set [12], 6.3 ± 1 µM. Also, the Kd in data set [13] worked out at 24.5 ± 6 µM; in data set [14] it was 19.1 ± 4.9 µM; in data set [15], 62.1 ± 5.4 µM; in data set [16], 6.9 ± 0.8 µM; in data set [17], 11.7 ± 0.9 µM; in [18] it was 4.9 ± 0.6 µM. In addition, the Kd is 14.9 ± 2.5 µM in data set [19]; 10.3 ± 2.8 µM in [20]; 4.1 ± 0.3 µM in [21]; 91.6 ± 39.7 µM in [22]; 12.6 ± 1.8 µM in data set [23]; 12 ± 0.9 µM in [24].
